Data as given in PMC4466390, “Canonical and Noncanonical Sites Determine NPT2A Binding Selectivity to NHERF1 PDZ1” (PLoS ONE, 2015).
Where no end group is shown, it is not given here.

B1: rhodamine-labeled 22-residue carboxy-terminal NPT2A peptide (peptide)
peptide: {5(6)‑carboxytetramethylrhodamine}-ELPPATPSPRLALPAHHNATRL
notes: type II sodium-dependent phosphate co-transporter (NPT2A, SLC34A1), 22-residue carboxy-terminal fragment; also called labeled NPT2A peptide; source: synthetic peptide (solid phase, Fmoc; HPLC purified)

Assays:
Conditions in all cases: both partners purified
NHERF1 PDZ1 (1–140) [1] = target: T1, NHERF1 PDZ1 (1–140) (human, UniProt O14745 1-140); assay: fluorescence polarisation; as a1 but at pH 5.5; 0.5 uM labeled NPT2A peptide, WT PDZ1 (1–140)
T1 construct: Na+/H+ Exchanger Regulatory Factor-1 (NHERF1, EBP50), human, PDZ1 construct, residues 1-140; Plasmid pET16-N1P1 provided by D. F. Mierke; also called WT PDZ1 (1–140); pET16-N1P1; source: E. coli BL21 (DE3), purified (Ni-NTA-agarose)
T1 sequence (looked up): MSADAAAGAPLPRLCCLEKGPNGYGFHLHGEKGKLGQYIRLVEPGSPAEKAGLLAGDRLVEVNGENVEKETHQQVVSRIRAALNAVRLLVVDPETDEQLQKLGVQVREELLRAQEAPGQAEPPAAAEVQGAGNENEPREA

NHERF1 PDZ1 (1–140) [2] = target: T1, NHERF1 PDZ1 (1–140); assay: fluorescence polarisation; as a1 but at pH 6.0; 0.5 uM labeled NPT2A peptide, WT PDZ1 (1–140)
NHERF1 PDZ1 (1–140) [3] = target: T1, NHERF1 PDZ1 (1–140); assay: fluorescence polarisation; solution phase direct binding, PDZ construct varied against 0.5 uM or 1 uM rhodamine-labeled NPT2A peptide; FP buffer (25 mM NaH2PO4, 10 mM NaCl, pH 7.4, 1 mM DTT, 0.1 mg/ml bovine IgG, 0.5 mM Thesit); 25°C; anisotropy fitted to a 1:1 complex
NHERF1 PDZ1 (11–120) = target: T2, NHERF1 PDZ1 (11–120) (human, UniProt O14745 11-120); assay: as above
T2 construct: Na+/H+ Exchanger Regulatory Factor-1 (NHERF1, EBP50), human, PDZ1 construct, residues 11-120; also called WT PDZ1 (11–120); source: E. coli BL21 (DE3), purified (Ni-NTA-agarose)
T2 sequence (looked up): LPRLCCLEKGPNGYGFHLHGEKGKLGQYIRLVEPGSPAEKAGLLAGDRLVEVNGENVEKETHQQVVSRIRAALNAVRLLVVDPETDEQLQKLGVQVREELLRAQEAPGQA

[4] = target: B1; assay: as above
[5] = target: T3, NHERF1 PDZ1 H27N/E43D (1–120) (human, UniProt O14745 1-120, H27N | E43D); assay: ITC; 25°C; 10 mM Hepes (pH 7.5), 10 mM NaCl, 0.5 mM EDTA, 0.5 mM beta-mercaptoethanol; 25 uM PDZ protein in the cell, NPT2A (200–250 uM) titrated in 19 injections of 2 ul
T3 construct: The double mutant's plasmid is not described in the methods; also called His27Asn/Glu43Asp PDZ1; source: E. coli BL21 (DE3), purified (Ni-NTA-agarose)
T3 sequence (looked up): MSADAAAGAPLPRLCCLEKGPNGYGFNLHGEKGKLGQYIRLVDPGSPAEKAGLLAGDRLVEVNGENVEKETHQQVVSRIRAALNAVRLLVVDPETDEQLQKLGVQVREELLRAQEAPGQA

NHERF1 PDZ1 (1–120) = target: T4, NHERF1 PDZ1 (1–120) (human, UniProt O14745 1-120); assay: as above
T4 construct: the methods describe PDZ1 (11-120) and PDZ1 (1-140) but no 1-120 construct, so 1-120 may be a misprint of 11-120; Host and purification are the general statement of the methods; also called WT PDZ1; source: E. coli BL21 (DE3), purified (Ni-NTA-agarose)
T4 sequence (looked up): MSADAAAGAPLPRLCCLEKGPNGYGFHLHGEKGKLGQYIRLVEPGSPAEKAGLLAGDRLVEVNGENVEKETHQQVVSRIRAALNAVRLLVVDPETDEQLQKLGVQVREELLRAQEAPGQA

NHERF1 PDZ1 H27N (1–120) = target: T5, NHERF1 PDZ1 H27N (1–120) (human, UniProt O14745 1-120, H27N); assay: as above
T5 construct: the methods describe the mutants in PDZ1 (11-120), so 1-120 may be a misprint of 11-120; also called His27Asn; source: E. coli BL21 (DE3), purified (Ni-NTA-agarose)
T5 sequence (looked up): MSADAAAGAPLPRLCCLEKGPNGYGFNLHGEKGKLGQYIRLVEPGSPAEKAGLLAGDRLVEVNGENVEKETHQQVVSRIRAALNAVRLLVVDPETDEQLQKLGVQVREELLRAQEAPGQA

NHERF1 PDZ1 E43D (1–120) = target: T6, NHERF1 PDZ1 E43D (1–120) (human, UniProt O14745 1-120, E43D); assay: as above
T6 construct: the methods describe the mutants in PDZ1 (11-120), so 1-120 may be a misprint of 11-120; also called Glu43Asp; source: E. coli BL21 (DE3), purified (Ni-NTA-agarose)
T6 sequence (looked up): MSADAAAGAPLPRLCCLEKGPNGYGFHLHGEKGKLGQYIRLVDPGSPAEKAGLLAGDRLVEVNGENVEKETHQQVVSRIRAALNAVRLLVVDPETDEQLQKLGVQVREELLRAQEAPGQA

With B1 as the binder, how does the Kd (NHERF1 PDZ1 (1–140) [1]) read?
Its Kd is 16.1 ± 3.3 µM.

What about the Kd (NHERF1 PDZ1 (1–140) [2]) of the same binder?
The Kd was 8 ± 1.8 µM.

And the Kd (NHERF1 PDZ1 (1–140) [3])?
Its Kd is 1.7 ± 0.2 µM.

What about the Kd (NHERF1 PDZ1 (11–120)) of the same binder?
The Kd was 5.5 ± 0.6 µM.

B2: NHERF1 PDZ2 D183E (domain or fragment, human, UniProt O14745 133-300, looked up)
chain: NENEPREADKSHPEQRELRPRLCTMKKGPSGYGFNLHSDKSKPGQFIRSVEPDSPAEASGLRAQDRIVEVNGVCMEGKQHGDVVSAIRAGGDETKLLVVDRETDEFFKKCRVIPSQEHLNGPLPVPFTNGEIQKENSREALAEAALESPRPALVRSASSDTSEELNSQ
notes: Na+/H+ Exchanger Regulatory Factor-1 (NHERF1, EBP50), human, PDZ2 construct, residues 133-300 (mutation introduced into pET16-N1P2), Asp183Glu; also called Asp183Glu PDZ2; single PDZ2 mutant; source: E. coli BL21 (DE3), purified (Ni-NTA-agarose)
Which EC50 [4] does the source give for B2 here?
Its EC50 is 20 ± 10 µM.

B3: NHERF1 PDZ2 N167H/D183E (domain or fragment, human, UniProt O14745 133-300, looked up)
chain: NENEPREADKSHPEQRELRPRLCTMKKGPSGYGFHLHSDKSKPGQFIRSVEPDSPAEASGLRAQDRIVEVNGVCMEGKQHGDVVSAIRAGGDETKLLVVDRETDEFFKKCRVIPSQEHLNGPLPVPFTNGEIQKENSREALAEAALESPRPALVRSASSDTSEELNSQ
notes: Na+/H+ Exchanger Regulatory Factor-1 (NHERF1, EBP50), human, PDZ2 construct, residues 133-300 (mutations introduced into pET16-N1P2), Asn167His and Asp183Glu; also called Asn167His/Asp183Glu PDZ2; double PDZ2 mutant; source: E. coli BL21 (DE3), purified (Ni-NTA-agarose)
How did the EC50 [4] turn out when B3 was run?
The EC50 was 11.7 ± 2 µM.

B4: NPT2A peptide (ligand titrated in ITC) (peptide)
peptide: ELPPATPSPRLALPAHHNATRL
notes: type II sodium-dependent phosphate co-transporter (NPT2A, SLC34A1), 22-residue carboxy-terminal fragment; Kept apart from m1 for that reason; also called ligand NPT2A; source: synthetic peptide
Which results are given for B4?
Kd [5]: 17.9 ± 0.9 µM; dH [5]: -5.8 ± 0.6 kcal/mol; stoichiometry N [5]: 0.6; Kd (NHERF1 PDZ1 (1–120)): 3.1 ± 0.3 µM; dH (NHERF1 PDZ1 (1–120)): -8.2 ± 0.8 kcal/mol; stoichiometry N (NHERF1 PDZ1 (1–120)): 0.92; Kd (NHERF1 PDZ1 H27N (1–120)): 5.3 ± 0.5 µM; dH (NHERF1 PDZ1 H27N (1–120)): -7.5 ± 0.7 kcal/mol; stoichiometry N (NHERF1 PDZ1 H27N (1–120)): 0.61; Kd (NHERF1 PDZ1 E43D (1–120)): 10.4 ± 0.8 µM; dH (NHERF1 PDZ1 E43D (1–120)): -3 ± 0.3 kcal/mol; stoichiometry N (NHERF1 PDZ1 E43D (1–120)): 0.6
